Experimental data from US20140294898A1 (published 2014).
Positions of bridges follow the written chain, without caps; N, C: chain ends. Non-standard residues stand in square brackets, D forms with d. Bta = N[C@@H](Cc1csc2ccccc12)C(=O)O; NMeNle = CCCC[C@H](NC)C(=O)O; NMeS = CN[C@@H](CO)C(=O)O; NMeA = CN[C@@H](C)C(=O)O; Sar = CNCC(=O)O

biological target: T1, hPDL1(19-239)-TVMV-His (human, UniProt Q9NZQ7 19-239); assay: HTRF competition, PD-1-Ig (20 nM) binding to human PD-L1-His (10 nM)
T1 construct: The construct name says 19-239, the running text says amino acids 18-239; Expressed in HEK293T cells; also called PD-L1-His; PD-L1-TVMV-His
T1 sequence (Q9NZQ7 other isoform, or with tags, fused parts or gaps limits assumed): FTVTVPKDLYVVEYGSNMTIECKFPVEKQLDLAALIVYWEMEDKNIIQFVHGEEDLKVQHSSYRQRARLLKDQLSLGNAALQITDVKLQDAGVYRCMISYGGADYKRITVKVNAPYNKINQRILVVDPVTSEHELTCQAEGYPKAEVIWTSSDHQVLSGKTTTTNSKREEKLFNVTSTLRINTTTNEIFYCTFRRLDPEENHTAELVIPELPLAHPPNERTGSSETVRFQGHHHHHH
Description: (§1) All binding studies were performed in an HTRF assay buffer consisting of dPBS supplemented with 0.1% (w/v) bovine serum albumin and 0.05% (v/v) Tween-20. […] PD-L1 fusion proteins from either human, cynomologous macaques, or mouse were used. HTRF detection was achieved using europium crypate-labeled anti-Ig monoclonal antibody (1 nM final) and allophycocyanin (APC) labeled anti-His monoclonal antibody (20 nM final). Antibodies were diluted in HTRF detection buffer and 5 μl was dispensed on top of binding reaction. The reaction was allowed to equilibrate for 30 minutes and signal (665 nm/620 nm ratio) was obtained using an EnVision fluorometer. […]
HTRF Experiments were performed essentially as outlined supra. Variant macrocyclic peptides were created as outlined herein.

Binder | IC50 [nM]
FANPHLGWSWSXRCG (HELM PEPTIDE1{[O=C(C[*:3])[*:2]].F.[meA].N.P.H.L.[Sar].W.S.W.[meS].[CCCC[C@@H](C(=O)[*:2])N(C)[*:1]].R.C.G.[am]}$PEPTIDE1,PEPTIDE1,1:R3-15:R3$$$V2.0; SMILES CCCC[C@H]1C(=O)N[C@@H](CCCNC(=N)N)C(=O)N[C@H](C(=O)NCC(N)=O)CSCC(=O)N[C@@H](Cc2ccccc2)C(=O)N(C)[C@@H](C)C(=O)N[C@@H](CC(N)=O)C(=O)N2CCC[C@H]2C(=O)N[C@@H](Cc2c[nH]cn2)C(=O)N[C@@H](CC(C)C)C(=O)N(C)CC(=O)N[C@@H](Cc2c[nH]c3ccccc23)C(=O)N[C@@H](CO)C(=O)N[C@@H](Cc2c[nH]c3ccccc23)C(=O)N(C)[C@@H](CO)C(=O)N1C, macrocyclic peptide cyclized via the ClAc moiety with the downstream cysteine) [Compound No. 66] | 144
{CH2CO}-F[NMeA]NPHL[Sar]WSI[NMeNle][NMeNle]RCG-NH2 (thioether N-14; SMILES CCCC[C@H]1C(=O)N(C)[C@@H](CCCC)C(=O)N[C@@H](CCCNC(=N)N)C(=O)N[C@H](C(=O)NCC(N)=O)CSCC(=O)N[C@@H](Cc2ccccc2)C(=O)N(C)[C@@H](C)C(=O)N[C@@H](CC(N)=O)C(=O)N2CCC[C@H]2C(=O)N[C@@H](Cc2c[nH]cn2)C(=O)N[C@@H](CC(C)C)C(=O)N(C)CC(=O)N[C@@H](Cc2c[nH]c3ccccc23)C(=O)N[C@@H](CO)C(=O)N[C@@H]([C@@H](C)CC)C(=O)N1C, macrocyclic peptide cyclized via the ClAc moiety with the downstream cysteine) [Compound No. 62] | 475
{CH2CO}-F[NMeA]NPHL[Sar]WSL[NMeNle][NMeNle]RCG-NH2 (thioether N-14; SMILES CCCC[C@H]1C(=O)N(C)[C@@H](CCCC)C(=O)N[C@@H](CCCNC(=N)N)C(=O)N[C@H](C(=O)NCC(N)=O)CSCC(=O)N[C@@H](Cc2ccccc2)C(=O)N(C)[C@@H](C)C(=O)N[C@@H](CC(N)=O)C(=O)N2CCC[C@H]2C(=O)N[C@@H](Cc2c[nH]cn2)C(=O)N[C@@H](CC(C)C)C(=O)N(C)CC(=O)N[C@@H](Cc2c[nH]c3ccccc23)C(=O)N[C@@H](CO)C(=O)N[C@@H](CC(C)C)C(=O)N1C, macrocyclic peptide cyclized via the ClAc moiety with the downstream cysteine) [Compound No. 63] | 3660
FANPHLGWSWSXRCG (HELM PEPTIDE1{[O=C(C[*:3])[*:2]].F.[meA].N.P.H.L.[Sar].W.S.W.S.[CCCC[C@@H](C(=O)[*:2])N(C)[*:1]].R.C.G.[am]}$PEPTIDE1,PEPTIDE1,1:R3-15:R3$$$V2.0; SMILES CCCC[C@H]1C(=O)N[C@@H](CCCNC(=N)N)C(=O)N[C@H](C(=O)NCC(N)=O)CSCC(=O)N[C@@H](Cc2ccccc2)C(=O)N(C)[C@@H](C)C(=O)N[C@@H](CC(N)=O)C(=O)N2CCC[C@H]2C(=O)N[C@@H](Cc2c[nH]cn2)C(=O)N[C@@H](CC(C)C)C(=O)N(C)CC(=O)N[C@@H](Cc2c[nH]c3ccccc23)C(=O)N[C@@H](CO)C(=O)N[C@@H](Cc2c[nH]c3ccccc23)C(=O)N[C@@H](CO)C(=O)N1C, macrocyclic peptide cyclized via the ClAc moiety with the downstream cysteine) [Compound No. 68] | 2060

Results, then the binder that gave them:

IC50 [nM] | Binder
24 | FANPHLXWSWXXRCG (N-terminal chloroacetyl (ClAc) on residue 1 cyclized as thioether with Cys14; N-methyl-Ala (mAla) at 2; Dab (2,4-diaminobutyric acid, written X) at 7; N-methyl-norleucine (mNle, written X) at 11 and 12; C-terminal amide (NH2), macrocyclic peptide cyclized via the ClAc moiety with the downstream cysteine) [Compound No. 52]
108 | FANPHLGWSWFXRCG (HELM PEPTIDE1{[O=C(C[*:3])[*:2]].F.[meA].N.P.H.L.[Sar].W.S.W.[meF].[CCCC[C@@H](C(=O)[*:2])N(C)[*:1]].R.C.G.[am]}$PEPTIDE1,PEPTIDE1,1:R3-15:R3$$$V2.0; SMILES CCCC[C@H]1C(=O)N[C@@H](CCCNC(=N)N)C(=O)N[C@H](C(=O)NCC(N)=O)CSCC(=O)N[C@@H](Cc2ccccc2)C(=O)N(C)[C@@H](C)C(=O)N[C@@H](CC(N)=O)C(=O)N2CCC[C@H]2C(=O)N[C@@H](Cc2c[nH]cn2)C(=O)N[C@@H](CC(C)C)C(=O)N(C)CC(=O)N[C@@H](Cc2c[nH]c3ccccc23)C(=O)N[C@@H](CO)C(=O)N[C@@H](Cc2c[nH]c3ccccc23)C(=O)N(C)[C@@H](Cc2ccccc2)C(=O)N1C, macrocyclic peptide cyclized via the ClAc moiety with the downstream cysteine) [Compound No. 67]
77 | FANPHLGWSWFXRCG (HELM PEPTIDE1{[O=C(C[*:3])[*:2]].F.[meA].N.P.H.L.[Sar].W.S.W.F.[CCCC[C@@H](C(=O)[*:2])N(C)[*:1]].R.C.G.[am]}$PEPTIDE1,PEPTIDE1,1:R3-15:R3$$$V2.0; SMILES CCCC[C@H]1C(=O)N[C@@H](CCCNC(=N)N)C(=O)N[C@H](C(=O)NCC(N)=O)CSCC(=O)N[C@@H](Cc2ccccc2)C(=O)N(C)[C@@H](C)C(=O)N[C@@H](CC(N)=O)C(=O)N2CCC[C@H]2C(=O)N[C@@H](Cc2c[nH]cn2)C(=O)N[C@@H](CC(C)C)C(=O)N(C)CC(=O)N[C@@H](Cc2c[nH]c3ccccc23)C(=O)N[C@@H](CO)C(=O)N[C@@H](Cc2c[nH]c3ccccc23)C(=O)N[C@@H](Cc2ccccc2)C(=O)N1C, macrocyclic peptide cyclized via the ClAc moiety with the downstream cysteine) [Compound No. 69]
43 | FANPHLGWSWLXRCG (HELM PEPTIDE1{[O=C(C[*:3])[*:2]].F.[meA].N.P.H.L.[Sar].W.S.W.[meL].[CCCC[C@@H](C(=O)[*:2])N(C)[*:1]].R.C.G.[am]}$PEPTIDE1,PEPTIDE1,1:R3-15:R3$$$V2.0; SMILES CCCC[C@H]1C(=O)N[C@@H](CCCNC(=N)N)C(=O)N[C@H](C(=O)NCC(N)=O)CSCC(=O)N[C@@H](Cc2ccccc2)C(=O)N(C)[C@@H](C)C(=O)N[C@@H](CC(N)=O)C(=O)N2CCC[C@H]2C(=O)N[C@@H](Cc2c[nH]cn2)C(=O)N[C@@H](CC(C)C)C(=O)N(C)CC(=O)N[C@@H](Cc2c[nH]c3ccccc23)C(=O)N[C@@H](CO)C(=O)N[C@@H](Cc2c[nH]c3ccccc23)C(=O)N(C)[C@@H](CC(C)C)C(=O)N1C, macrocyclic peptide cyclized via the ClAc moiety with the downstream cysteine) [Compound No. 65]
7 | {CH2CO}-F[NMeA]NPHL[Sar]WS[Bta][NMeNle][NMeNle]RCG-NH2 (thioether N-14; SMILES CCCC[C@H]1C(=O)N(C)[C@@H](CCCC)C(=O)N[C@@H](CCCNC(=N)N)C(=O)N[C@H](C(=O)NCC(N)=O)CSCC(=O)N[C@@H](Cc2ccccc2)C(=O)N(C)[C@@H](C)C(=O)N[C@@H](CC(N)=O)C(=O)N2CCC[C@H]2C(=O)N[C@@H](Cc2c[nH]cn2)C(=O)N[C@@H](CC(C)C)C(=O)N(C)CC(=O)N[C@@H](Cc2c[nH]c3ccccc23)C(=O)N[C@@H](CO)C(=O)N[C@@H](Cc2csc3ccccc23)C(=O)N1C, macrocyclic peptide cyclized via the ClAc moiety with the downstream cysteine) [Compound No. 64]
13 | {CH2CO}-F[NMeA]NPHL[NMeS]WSW[NMeNle][NMeNle]RCG-NH2 (thioether N-14; SMILES CCCC[C@H]1C(=O)N(C)[C@@H](CCCC)C(=O)N[C@@H](CCCNC(=N)N)C(=O)N[C@H](C(=O)NCC(N)=O)CSCC(=O)N[C@@H](Cc2ccccc2)C(=O)N(C)[C@@H](C)C(=O)N[C@@H](CC(N)=O)C(=O)N2CCC[C@H]2C(=O)N[C@@H](Cc2c[nH]cn2)C(=O)N[C@@H](CC(C)C)C(=O)N(C)[C@@H](CO)C(=O)N[C@@H](Cc2c[nH]c3ccccc23)C(=O)N[C@@H](CO)C(=O)N[C@@H](Cc2c[nH]c3ccccc23)C(=O)N1C, macrocyclic peptide cyclized via the ClAc moiety with the downstream cysteine) [Compound No. 56]
31 | {CH2CO}-F[NMeA]NPHL[Sar]WSM[NMeNle][NMeNle]RCG-NH2 (thioether N-14; SMILES CCCC[C@H]1C(=O)N(C)[C@@H](CCCC)C(=O)N[C@@H](CCCNC(=N)N)C(=O)N[C@H](C(=O)NCC(N)=O)CSCC(=O)N[C@@H](Cc2ccccc2)C(=O)N(C)[C@@H](C)C(=O)N[C@@H](CC(N)=O)C(=O)N2CCC[C@H]2C(=O)N[C@@H](Cc2c[nH]cn2)C(=O)N[C@@H](CC(C)C)C(=O)N(C)CC(=O)N[C@@H](Cc2c[nH]c3ccccc23)C(=O)N[C@@H](CO)C(=O)N[C@@H](CCSC)C(=O)N1C, macrocyclic peptide cyclized via the ClAc moiety with the downstream cysteine) [Compound No. 61]
43 | {CH2CO}-F[NMeA]NPHL[Sar]WAW[NMeNle][NMeNle]ACG-NH2 (thioether N-14; SMILES CCCC[C@H]1C(=O)N(C)[C@@H](CCCC)C(=O)N[C@@H](C)C(=O)N[C@H](C(=O)NCC(N)=O)CSCC(=O)N[C@@H](Cc2ccccc2)C(=O)N(C)[C@@H](C)C(=O)N[C@@H](CC(N)=O)C(=O)N2CCC[C@H]2C(=O)N[C@@H](Cc2c[nH]cn2)C(=O)N[C@@H](CC(C)C)C(=O)N(C)CC(=O)N[C@@H](Cc2c[nH]c3ccccc23)C(=O)N[C@@H](C)C(=O)N[C@@H](Cc2c[nH]c3ccccc23)C(=O)N1C, macrocyclic peptide cyclized via the ClAc moiety with the downstream cysteine) [Compound No. 60]

biological target: T1, hPDL1(19-239)-TVMV-His; assay: as above; remark: another data set of the same source
Description: as §1
HTRF experiments were performed essentially as outlined supra. Variant macrocyclic peptides were created as outlined herein.

IC50 [nM] | Binder
7 | FFXGDVFYGWYLCG (HELM PEPTIDE1{[O=C(C[*:3])[*:2]].F.[meF].[CCCC[C@@H](C(=O)[*:2])N(C)[*:1]].[Sar].D.V.[meF].Y.[Sar].W.Y.L.C.G.[am]}$PEPTIDE1,PEPTIDE1,1:R3-14:R3$$$V2.0; SMILES CCCC[C@H]1C(=O)N(C)CC(=O)N[C@@H](CC(=O)O)C(=O)N[C@@H](C(C)C)C(=O)N(C)[C@@H](Cc2ccccc2)C(=O)N[C@@H](Cc2ccc(O)cc2)C(=O)N(C)CC(=O)N[C@@H](Cc2c[nH]c3ccccc23)C(=O)N[C@@H](Cc2ccc(O)cc2)C(=O)N[C@@H](CC(C)C)C(=O)N[C@H](C(=O)NCC(N)=O)CSCC(=O)N[C@@H](Cc2ccccc2)C(=O)N(C)[C@@H](Cc2ccccc2)C(=O)N1C, macrocyclic peptide cyclized via the ClAc moiety with the downstream cysteine; parent of the Formula II series) [Compound No. 71]
